Numbering of substitutions follows the chain as printed.
B1: TRIDENT-2 (other)
chain 1: DIQMTQSPSTLSASVGDRVTITCRASQSVGYMHWYQQKPGKAPKLLIYDTSKLASGVPSRFSGSGSGTEFTLTISSLQPDDFATYYCFQGSGYPFTFGGGTKLEIKGGGSGGGGEVKLDETGGGLVQPGRPMKLSCVASGFTFSDYWMNWVRQSPEKGLEWVAQIRNKPYNYETYYSDSVKGRFTISRDDSKSSVYLQMNNLRVEDMGIYYCTGSYYGMDYWGQGTSVTVSSASTKGEVAACEKEVAALEKEVAALEKEVAALEKGGGDKTHTCPPCPAPEAAGGPSVFLFPPKPKDTLMISRTPEVTCVVVDVSHEDPEVKFNWYVDGVEVHNAKTKPREEQYNSTYRVVSVLTVLHQDWLNGKEYKCKVSNKALPAPIEKTISKAKGQPREPQVYTLPPSREEMTKNQVSLWCLVKGFYPSDIAVEWESNGQPENNYKTTPPVLDSDGSFFLYSKLTVDKSRWQQGNVFSCSVMHEALHNHYTQKSLSLSPGK
chain 2: DVVMTQTPFSLPVSLGDQASISCRSSQSLVHSNGNTYLRWYLQKPGQSPKVLIYKVSNRFSGVPDRFSGSGSGTDFTLKISRVEAEDLGVYFCSQSTHVPWTFGGGTKLEIKGGGSGGGGQVTLRESGPALVKPTQTLTLTCTFSGFSLSTSGMSVGWIRQPPGKALEWLADIWWDDKKDYNPSLKSRLTISKDTSKNQVVLKVTNMDPADTATYYCARSMITNWYFDVWGAGTTVTVSSASTKGKVAACKEKVAALKEKVAALKEKVAALKE
heavy: QVQLVQSGAEVKKPGASVKVSCKASGYTFTNYGMNWVRQAPGQGLEWMGWINTNIGEPTYTEEFKGRVTMTRDTSISTAYMELSRLRSDDTAVYYCARDDGYGNRVSYWGQGTLVTVSSASTKGPSVFPLAPSSKSTSGGTAALGCLVKDYFPEPVTVSWNSGALTSGVHTFPAVLQSSGLYSLSSVVTVPSSSLGTQTYICNVNHKPSNTKVDKRVEPKSCDKTHTCPPCPAPEAAGGPSVFLFPPKPKDTLMISRTPEVTCVVVDVSHEDPEVKFNWYVDGVEVHNAKTKPREEQYNSTYRVVSVLTVLHQDWLNGKEYKCKVSNKALPAPIEKTISKAKGQPREPQVYTLPPSREEMTKNQVSLSCAVKGFYPSDIAVEWESNGQPENNYKTTPPVLDSDGSFFLVSKLTVDKSRWQQGNVFSCSVMHEALHNRYTQKSLSLSPGK
light: DIQMTQSPSSLSASVGDRVTITCKASQDISNYLSWFQQKPGKAPKTLIYRANRLQSGVPSRFSGSGSGTDFTLTISSLQPEDFATYYCLQHDEFPWTFGQGTKLEIKRTVAAPSVFIFPPSDEQLKSGTASVVCLLNNFYPREAKVQWKVDNALQSGNSQESVTEQDSKDSTYSLSSTLTLSKADYEKHKVYACEVTHQGLSSPVTKSFNRGEC
notes: also called RSV×FITC×HER2 control molecule; TA×FITC×RSV control molecule
B2: DART-C (bispecific antibody)
chain 1: not shown
chain 2: DIQMTQSPSSLSASVGDRVTITCKASQDISNYLSWFQQKPGKAPKTLIYRANRLQSGVPSRFSGSGSGTDFTLTISSLQPEDFATYYCLQHDEFPWTFGQGTKLEIKGGGSGGGGQVQLVQSGAEVKKPGASVKVSCKASGYTFTSYWINWVKQAPGQGLEWIGNIYPSDSYTNYNQKFKDKATITADKSTSTAYMELSSLRSEDTAVYYCTRDYGSSYSFDYWGQGTTVTVSSGGCGGGKVAACKEKVAALKEKVAALKEKVAALKE
B3: hHER2 MAB-1 (1.2) (antibody, V domains shown)
VH: QVQLVQSGAEVKKPGASVKVSCKASGYTFTNYGMNWVRQAPGQGLEWMGWINTNIGEPTYTEEFKGRVTMTRDTSISTAYMELSRLRSDDTAVYYCARDDGYGNRVSYWGQGTLVTVSS
VL: DIQMTQSPSSLSASVGDRVTITCKASQDINTYLSWFQQKPGKAPKTLIYRANRLVEGVPSRFSGSGSGTDFTLTISSLQPEDFATYYCLQHDEFPWTFGQGTKLEIK
B4: hHER2 MAB-1 (1.3) (antibody, V domains shown)
VH: B3 VH
VL: B3 VL with N30S, T31N, V55Q, E56S
B5: HER2 MAB-1 (antibody, V domains shown)
VH: EVQLQESGPELKKPGETVKISCKASGYTFTNYGMNWVKQAPGKGLKWMGWINTNIGEPTYTEEFKGRFAFSLGTSASTAFLQINNLKNEDTATYFCARDDGYGNRVSYWGQGTLVTVSA
VL: DILMTQSPLSMYTSLGERVTITCKASQDINSYLSWFQQKPGKSPKTLIYRANRLVDGVPSRFSGSGSGQDYSLTISSLEYEDMGIYYCLQHDEFPWTFGGGTKLEIK
notes: also called 8H11
B6: hCD137 MAB-3 (1B.4) (antibody, V domains shown)
VH: QVQLVQSGAEVKKPGASVKVSCKASGYTFTSYWINWVKQAPGQGLEWIGNIYPSDSYTNYNQKFKDKATITADKSTSTAYMELSSLRSEDTAVYYCTRDYGSAYSMSTWGQGTTVTVSS
VL: DIQMTQSPSSLSASVGDRVTITCQASQDISNYLNWYQQKPDKTVKLLIYYTSRLRSGVPSRFSGSGSGTDFTFTISSLQPEDIATYFCQQGDTLPYTFGQGTKLEIK
B7: hCD137 MAB-3 (1G.7) (antibody, V domains shown)
VH: B6 VH with K38R, I48A
VL: B6 VL with V44A
B8: hCD137 MAB-3 (1B.5) (antibody, V domains shown)
VH: B6 VH
VL: B6 VL with Q24R, A25P, V44A
B9: hCD137 MAB-3 (1G.14) (antibody, V domains shown)
VH: B6 VH with K38R, I48A
VL: B6 VL with S52T, L54A
B10: hCD137 MAB-3 (1E.9) (antibody, V domains shown)
VH: B6 VH with K38R
VL: B6 VL with L54A
B11: hCD137 MAB-3 (1B.13) (antibody, V domains shown)
VH: B6 VH
VL: B6 VL with Q24R, A25P, I48A, S52G
B12: hCD137 MAB-3 (1B.10) (antibody, V domains shown)
VH: B6 VH
VL: B6 VL with Q24R, A25P, S52T
B13: hCD137 MAB-3 (1F.3) (antibody, V domains shown)
VH: B6 VH with I48A
VL: B6 VL with Q24R, A25P
B14: hCD137 MAB-3 (1G.4) (antibody, V domains shown)
VH: B6 VH with K38R, I48A
VL: B6 VL
B15: hCD137 MAB-3 (1E.14) (antibody, V domains shown)
VH: B6 VH with K38R
VL: B6 VL with S52T, L54A
B16: hCD137 MAB-3 (1E.3) (antibody, V domains shown)
VH: B6 VH with K38R
VL: B6 VL with Q24R, A25P
B17: hCD137 MAB-3 (1B.11) (antibody, V domains shown)
VH: B6 VH
VL: B6 VL with Q24R, A25P, S52G
B18: hCD137 MAB-3 (1B.6) (antibody, V domains shown)
VH: B6 VH
VL: B6 VL with Q24R, A25P, L54A
B19: hCD137 MAB-3 (1G.8) (antibody, V domains shown)
VH: B6 VH with K38R, I48A
VL: B6 VL with V44A, L54A
B20: hCD137 MAB-3 (1E.4) (antibody, V domains shown)
VH: B6 VH with K38R
VL: B6 VL

Each binder was assayed against T1, HER2/neu on the surface of target cells (N87, JIMT-1, MCF-7, MDA-MB231) (UniProt P04626 23-1255, limits assumed) (assay: flow cytometry on N87 cells, anti-hFc APC MFI).
T1 construct: whole, on cells
For B1, the “EC50 (read off the curve)” value was ~1 nM.

The binders below were run against T1, HER2/neu on the surface of target cells … (assay: flow cytometry on MCF-7 cells, anti-hFc APC MFI).
In the case of B1, the “EC50 (read off the curve)” value is reported as ~0.2 nM.

These binders were tested against T1, HER2/neu on the surface of target cells … (assay: flow cytometry on JIMT-1 cells, anti-hFc APC MFI).
B1 was tested, and the “EC50 (read off the curve)” value was ~0.7 nM.

The binders below were run against T1, HER2/neu on the surface of target cells … (assay: flow cytometry on N87 gastric cancer cells, anti-hFc APC MFI).
B2 was tested, and the “EC50 (read off the curve)” value was ~0.5 nM.

The binders below were run against T2, CD137 on the surface of cells (activated human T cells; engineered CHO cells) (human, UniProt Q07011 24-255) (assay: flow cytometry on activated pan T cells gated CD8, anti-hFc APC MFI).
T2 construct: whole, on cells; also called human CD137; cell surface expressed CD137
T2 sequence (Q07011 24-255, change not shown): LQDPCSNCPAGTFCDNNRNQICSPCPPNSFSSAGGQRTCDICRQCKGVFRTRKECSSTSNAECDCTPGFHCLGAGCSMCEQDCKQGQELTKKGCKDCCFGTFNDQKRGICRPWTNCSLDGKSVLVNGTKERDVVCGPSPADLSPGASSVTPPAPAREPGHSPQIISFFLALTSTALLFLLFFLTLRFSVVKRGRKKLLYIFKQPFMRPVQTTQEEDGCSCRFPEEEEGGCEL
For B2, the “EC50 (read off the curve)” value was ~0.1 nM.

These binders were tested against T3, extracellular portion of human HER2 fused to a histidine-containing peptide (human, UniProt P04626 23-652) (assay: SPR (BIACORE); antibody captured on anti-human Fc; huHER2 6.25-50 nM; 1:1 Langmuir).
T3 construct: extracellular domain; also called huHER2; Human HER2/neu
Description: The humanized variants were selected to have improved binding affinity as compared to the parental murine antibody and as described may be further engineered to eliminate sequence liabilities (e.g., isomerization, deamidation sites) as described above. The binding affinity of several combinations of humanized VH and VL domains was examined by BIACORE®. Thus, an extracellular portion of human HER2 fused to a histidine-containing peptide (“huHER2”) was passed over a surface coated with immobilized antibody. Briefly, each test molecule was captured onto an F(ab)₂ goat-anti-human Fc-coated surface and then incubated in the presence of different concentrations (6.25 nM-50 nM) of huHER2. The kinetics of binding were determined via BIACORE® analysis binding (normalized 1:1 Langmuir binding model).
For B3, the Kd was 0.45 nM, the koff was 0.00028 s⁻¹ and the kon was 620000 M⁻¹ s⁻¹.
B4 showed a Kd of 0.36 nM, a koff of 0.000223 s⁻¹ and a kon of 618000 M⁻¹ s⁻¹.
In the case of B5, the Kd is reported as 1.27 nM, the koff is reported as 0.000654 s⁻¹ and the kon is reported as 510000 M⁻¹ s⁻¹.

What follows are binders tested against T4, extracellular portion of human CD137 fused to a histidine-containing peptide (human, UniProt Q07011 24-186) (assay: Attana Cell A200 QCM; antibody captured by anti-human IgG Fc; soluble human CD137-His; grade relative to (1B.3)).
T4 construct: extracellular domain; also called huCD137; His-tagged soluble human CD137
B6: binds.
B7: binds.
B8: binds.
B9: binds.
B10: binds.
B11: binds.
B12: binds.
B13: binds.
B14: binds.
B15: binds.
B16: binds.
B17: binds.
B18: binds.
B19: binds.
B20: binds.
